Experimental data published in US20160317649A1, “EPITOPES OF HERPES SIMPLEX VIRUS” (priority 2007, published 2016).
Where two headings read alike, the source gives them in different places.

Legend:
Details in all cases: modification not given
[1] = target: HLA DRB1*0701 (human)
[2] = target: HLA DRB1*0101 (human)
[3] = target: HLA DRB1*0101 (human); remark: listed apart in the source
[4] = target: HLA DRB1*1302 (human)
[5] = target: HLA DRB1*0101 (human); remark: listed apart in the source
[6] = target: HLA DRB1*0701 (human); remark: listed apart in the source

B1: 24.2 (peptide)
chain: AYQQGVTVDSIG
- IC50 [1]: 2720 nM
- IC50 [2]: 471 nM

B2: 34.2 (peptide)
chain: APAAPANPGLII
- IC50 [3]: 1270 nM
- IC50 [4]: 642 nM

B3: 34.1 (peptide)
chain: HAPAAPANPGLI
- IC50 [5]: 3550 nM

B4: 24.3 (peptide)
chain: YQQGVTVDSIGM
- IC50 [6]: 389 nM
